Measured values as given in the supplement of paper PMC10567573.

B1: CDKL4 (parent)
chain: AVKKFVESEDDPVVKKIALREIRM
B2: ZBED1 (parent)
chain: EQVFSLGDGVSGGFFGIRDSSFL

Variants of: B1
Test: protein stability index of a GFP-peptide fusion (GPS, HEK-293T) (PSI 1-6); higher = more stable
Conditions: c terminus: a fixed tail appended
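Note: lentivirally expressed fusions sorted by FACS into six bins by GFP to DsRed ratio, PSI derived from sequencing read proportions per bin multiplied by bin number.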

Variant | protein stability index
KVKKFVESEDDPVVKKIALREIRM | 2.91
AVKYFVESEDDPVVKKIALREIRM | 2.25
AVKSFVESEDDPVVKKIALREIRM | 3.15
AVKHFVESEDDPVVKKIALREIRM | 2.88
AVKRFVESEDDPVVKKIALREIRM | 2.7
AVKWFVESEDDPVVKKIALREIRM | 2.43
AVKPFVESEDDPVVKKIALREIRM | 4.01
AVKQFVESEDDPVVKKIALREIRM | 3.17
AVKCFVESEDDPVVKKIALREIRM | 2.6
AVKGFVESEDDPVVKKIALREIRM | 3.5
AVKDFVESEDDPVVKKIALREIRM | 4.07
AVKLFVESEDDPVVKKIALREIRM | 2.49
AVKAFVESEDDPVVKKIALREIRM | 3.07
AVKFFVESEDDPVVKKIALREIRM | 2.13
AVKNFVESEDDPVVKKIALREIRM | 2.92
AVKTFVESEDDPVVKKIALREIRM | 3.25
AVKVFVESEDDPVVKKIALREIRM | 2.55
AVKEFVESEDDPVVKKIALREIRM | 3.55
AVKMFVESEDDPVVKKIALREIRM | 2.34
AVKIFVESEDDPVVKKIALREIRM | 1.88

Variant | protein stability index
ARKKFVESEDDPVVKKIALREIRM | 2.85
AEKKFVESEDDPVVKKIALREIRM | 4.01
AGKKFVESEDDPVVKKIALREIRM | 3.82
ALKKFVESEDDPVVKKIALREIRM | 3.7
ADKKFVESEDDPVVKKIALREIRM | 3.71
AIKKFVESEDDPVVKKIALREIRM | 2.31
AKKKFVESEDDPVVKKIALREIRM | 3.55
AWKKFVESEDDPVVKKIALREIRM | 2.1
AAKKFVESEDDPVVKKIALREIRM | 3.8
AQKKFVESEDDPVVKKIALREIRM | 3.56
ANKKFVESEDDPVVKKIALREIRM | 3.63
AYKKFVESEDDPVVKKIALREIRM | 2.52
ACKKFVESEDDPVVKKIALREIRM | 2.85
AFKKFVESEDDPVVKKIALREIRM | 2.52
ATKKFVESEDDPVVKKIALREIRM | 3.35
ASKKFVESEDDPVVKKIALREIRM | 3.51
APKKFVESEDDPVVKKIALREIRM | 3.74
AHKKFVESEDDPVVKKIALREIRM | 3.03
AMKKFVESEDDPVVKKIALREIRM | 2.79
AVKKNVESEDDPVVKKIALREIRM | 3.14

Variant | protein stability index
AVKKEVESEDDPVVKKIALREIRM | 3.94
AVKKVVESEDDPVVKKIALREIRM | 3.81
AVKKSVESEDDPVVKKIALREIRM | 4.46
AVKKHVESEDDPVVKKIALREIRM | 3.24
AVKKIVESEDDPVVKKIALREIRM | 2.94
AVKKTVESEDDPVVKKIALREIRM | 4
AVKKWVESEDDPVVKKIALREIRM | 2.47
AVKKQVESEDDPVVKKIALREIRM | 3.01
AVKKKVESEDDPVVKKIALREIRM | 3.55
AVKKCVESEDDPVVKKIALREIRM | 4.34
AVKKPVESEDDPVVKKIALREIRM | 4.07
AVKKMVESEDDPVVKKIALREIRM | 3.33
AVKKGVESEDDPVVKKIALREIRM | 4.28
AVKKAVESEDDPVVKKIALREIRM | 3.66
AVKKRVESEDDPVVKKIALREIRM | 3.63
AVKKDVESEDDPVVKKIALREIRM | 3.75
AVKKYVESEDDPVVKKIALREIRM | 3.46
AVKKLVESEDDPVVKKIALREIRM | 2.98
AVKKFVESCDDPVVKKIALREIRM | 2.23
AVKKFVESADDPVVKKIALREIRM | 2.4

Variants of: B2
Test: as above
Conditions: c terminus: native

Variant | protein stability index
EQVFSLGDGVSGGFFGIRDSSGL | 4.14
EQVFSLGDGVSGGFFGIRDSSHL | 4.5
EQVFSLGDGVSGGFFGIRDSSYL | 3.33
EQVFSLGDGVSGGFFGIRDSSRL | 3.61
EQVFSLGDGVSGGFFGIRDSSEL | 4.08
EQVFSLGDGVSGGFFGIRDSSTL | 4.07
EQVFSLGDGVSGGFFGIRDSSML | 3.49
EQVFSLGDGVSGGFFGIRDSSLL | 3.41
EQVFSLGDGVSGGFFGIRDSSSL | 3.79
EQVFSLGDGVSGGFFGIRDSSKL | 2.39
EQVFSLGDGVSGGFFGIRDSSNL | 4.22
EQVFSLGDGVSGGFFGIRDSSWL | 3.73
EQVFSLGDGVSGGFFGIRDSSIL | 3.04
EQVFSLGDGVSGGFFGIRDSSVL | 3.35
EQVFSLGDGVSGGFFGIRDSSQL | 4.24
EQVFSLGDGVSGGFFGIRDSSPL | 3.43
EQVFSLGDGVSGGFFGIRDSSFK | 4.35
EQVFSLGDGVSGGFFGIRDSSFA | 2.42

Variant | protein stability index
EQVFSLGDGVSGGFFGIRDSSFV | 3.19
EQVFSLGDGVSGGFFGIRDSSFD | 3.96
EQVFSLGDGVSGGFFGIRDSSFS | 3.25
EQVFSLGDGVSGGFFGIRDSSFC | 3.34
EQVFSLGDGVSGGFFGIRDSSFI | 2.99
EQVFSLGDGVSGGFFGIRDSSFQ | 3.98
EQVFSLGDGVSGGFFGIRDSSFN | 3.94
EQVFSLGDGVSGGFFGIRDSSFY | 2.61
EQVFSLGDGVSGGFFGIRDSSFF | 2.63
EQVFSLGDGVSGGFFGIRDSSFM | 3.67
EQVFSLGDGVSGGFFGIRDSSFG | 1.56
EQVFSLGDGVSGGFFGIRDSSFE | 4.54
EQVFSLGDGVSGGFFGIRDSSFT | 3.33
EQVFSLGDGVSGGFFGIRDSSFW | 2.66
EQVFSLGDGVSGGFFGIRDSSFP | 3.92
EQVFSLGDGVSGGFFGIRDSSFR | 3.35
EQVFSLGDGVSGGFFGIRDSSFH | 3.9
